This note sets out measurements from US20240408220A1, “PEPTIDE DENDRONS AND METHODS OF USE THEREOF” (ASTRAZENECA AB, priority 2021, published 2024).

The nature of series [1]: Anionic stability assay (dextran sulfate dissociation of NPs). In kind it is physicochemical. The procedure: Dextran sulfate (DS) solutions were prepared in 20 mM HEPES and added to NP solutions (prepared as in Example 4) so the final DS concentration was between […] and DNA concentration was 10 μg/mL. After a 15-minute decomplexation period, 15 μl of each formulation was added to a 2% E-gel with ethidium bromide and run for 10 minutes. pDNA release was calculated using ImageJ (NIH, Bethesda, Maryland) and the results shown in FIG. 2A where the percent of intact nanoparticles Is plotted as a function of DS concentration.

Series [2] addresses Cathepsin-B (Homo sapiens, UniProt P07858). Kind of series: Enzymatic DNA release from NPs by cathepsin-B. In kind it is biochemical. As to conditions: relative to non-modified PD3 and all PD2 formulations. The procedure:
NPs prepared as in Example 4 but in 8 mM L-Cysteine HCl buffer pH 6 at a final DNA concentration of 0.1 μg/μl. Cathepsin-B stock solution (60 units/mL) was subsequently added. Cat-B NP solutions were incubated at 37° C. for up to 4 hours. Aliquots were removed at the appropriate time points and analysed via agarose gel electrophoresis to visualize released DNA. DNA dilutions were prepared at different concentrations as a control and likewise added to the same agarose gel for subsequent quantification using bio-rad intensity software analysis and the results shown in FIG. 2B.

Where no end group is shown, it is not given here. [ ]: non-standard residue; d: D form. Cit = NC(=O)NCCC[C@H](N)C(=O)O

On to “({LEU}{ARG}8{LYS}{LEU}{ARG}4{LYS}{LEU}{ARG})2{LYS}{GLY}{VAL}{CIT}{GLY}{GLY}{SER}{CYS} (chain 1 LRKLRKLRKGV[Cit]GGSC-NH2; chain 2 LRKLRKLR; chain 3 LRKLR; also: branched dendron: side chains of K3, K6, K9 (chain 1) and K3, K6 (chain 2) amide-linked to other sequences, chain 2 C-terminus linked to another sequence) [PD1, comparison peptide dendron without modified lysines]”, for which, in series [1], the “dextran sulphate concentration above which DNA was readily released” value was “exceeding 50 μg/mL”.

For “({LYS(M)}{LEU}{ARG})8({LYS}{LYS(M)}{LEU}{ARG})4({LYS}{LYS(M)}{LEU}{ARG})2{LYS}{GLY}{VAL}{CIT}{GLY}{GLY}{SER}{CYS} (chain 1 K(2‑morpholinoacetyl)LRKK(2‑morpholinoacetyl)LRKK(2‑morpholinoacetyl)LRKGV[Cit]GGSC-NH2; chain 2 K(2‑morpholinoacetyl)LRKK(2‑morpholinoacetyl)LRKK(2‑morpholinoacetyl)LR; chain 3 K(2‑morpholinoacetyl)LRKK(2‑morpholinoacetyl)LR; also: branched dendron: side chains of K4, K8, K12 (chain 1) and K4, K8 (chain 2) amide-linked to other sequences) [PD3(M)]”, the “DNA release in response to cathepsin-B activity” value in series [2] was “readily released DNA in response to cathepsin-B activity”.
